Data reported in the supplement of paper PMC10126150.
± gives the standard deviation of the averaged measurements.

test system: ATP; test: switch fluorescence ratio, 500 uM ATP over buffer (Cy3 cluster intensity, sum of 5 cycles each) (fold (ratio)); higher = stronger signal-on switching upon ATP binding; sequences stand for … in TCGTCGGCAGCGTCAGATGTGTATAAGAGACAGTTTTTTTTTTTTTTTTTTTTTTTTT…TC; settings: aptamer strand: ATP DNA aptamer (quencher-CACCTGGGGGAGTATTGCGGAGGAAGG + anchor), 100 nM annealed; ATP concentration: 500 uM
Procedure, shortened: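 For every switch-domain sequence, the fluorescence ratio is the mean of per-cluster values, each being summed target-cycle Cy3 intensity over summed buffer-cycle Cy3 intensity. Clusters outside 100-1000 RFU were excluded. On a modified Illumina MiSeq flow-cell, the Cy3-labelled switching-strand clusters were annealed to 100 nM quencher-labelled ATP aptamer, imaged in selection buffer and then after 15 min with 500 uM ATP at 22 °C. Five such cycles were run, with NaOH stripping and re-annealing between them.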
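Also: ATP exposure 15 min at 22 °C before imaging.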

Sequence	switch fluorescence ratio
TTCGTGTGGT	1 ± 0.019
TTCGTGTTTT	1.04 ± 0.059
TTCGTTAGAG	0.9796 ± 0.0014
TTCGTTGGAC	1.01 ± 0.012
TTCGTTGGGT	0.986 ± 0.016
TTCGTTTTGC	0.999 ± 0.035
TTCTAACCCC	1.12 ± 0.012
TTCTACCAGC	1.01 ± 0.011
TTCTAGGGCA	1.02 ± 0.038
TTCTAGTGGG	1 ± 0.033
TTCTATACAT	1.04 ± 0.054
TTCTATCGTT	1.01 ± 0.031
TTCTATGTTA	0.997 ± 0.014
TTCTATTTTT	1.03 ± 0.024
TTCTCCTTTT	1.01 ± 0.021
TTCTCGCCAA	1.08 ± 0.022
TTCTCGGCTA	1.56 ± 0.61
TTCTCGGGGA	0.9908 ± 0.0097
TTCTCGGGGG	1.04 ± 0.043
TTCTCGTCTT	1.04 ± 0.036
TTCTCTAGGG	0.99 ± 0.0049
TTCTGAAAAC	1.0127 ± 0.00023
TTCTGAGGTG	1.074 ± 0.0026
TTCTGAGTCT	1.02 ± 0.041
TTCTGATGGA	0.978 ± 0.036
TTCTGGATTA	0.994 ± 0.036

Sequence	switch fluorescence ratio
TTCTGGCTTT	1.16 ± 0.25
TTCTGGGGGT	0.999 ± 0.051
TTCTGGGTTT	1.01 ± 0.025
TTCTGGTGCA	1.02 ± 0.047
TTCTGTGGGG	1.01 ± 0.017
TTCTGTTTCC	1.12 ± 0.13
TTCTTAAAAG	1.02 ± 0.028
TTCTTAATGC	0.985 ± 0.024
TTCTTAGTGT	0.97 ± 0.027
TTCTTCGTTA	1.03 ± 0.019
TTCTTGGGTT	0.989 ± 0.031
TTCTTGTTTT	1.01 ± 0.016
TTCTTTAAAC	0.992 ± 0.033
TTCTTTAGAA	1.03 ± 0.046
TTCTTTATCG	1.02 ± 0.073
TTCTTTCGTC	0.979 ± 0.021
TTCTTTGGGA	1.02 ± 0.028
TTCTTTTAGG	0.996 ± 0.03
TTCTTTTATC	0.983 ± 0.03
TTCTTTTGGG	0.987 ± 0.039
TTGAAAGTAT	1.03 ± 0.048
TTGAAAGTGA	1.13 ± 0.25
TTGAAAGTTT	1.01 ± 0.026
TTGAAATCGA	1.01 ± 0.03
TTGAAATTTG	1 ± 0.011
TTGAACCTTT	1.02 ± 0.012

Sequence	switch fluorescence ratio
TTGAAGTCGT	0.988 ± 0.02
TTGAAGTGGG	1.03 ± 0.014
TTGAATAAAA	1.005 ± 0.0096
TTGAATACAC	1.11 ± 0.17
TTGAATAGTT	0.998 ± 0.017
TTGAATATGG	1.01 ± 0.021
TTGAATCGAC	1.08 ± 0.042
TTGACCTGTG	1.02 ± 0.013
TTGACGAATC	1.067 ± 0.002
TTGACTAT	1.005 ± 0.0027
TTGACTTTGA	1.02 ± 0.016
TTGAGAGGGG	0.981 ± 0.021
TTGAGAGGGT	0.9859 ± 0.0089
TTGAGCCTGT	0.977 ± 0.028
TTGAGCTTAT	0.993 ± 0.018
TTGAGGACGG	1.03 ± 0.016
TTGAGGCAGT	1.54 ± 0.55
TTGAGGCCGG	1.038 ± 0.0038
TTGAGGCGGG	0.993 ± 0.045
TTGAGGGAGG	1 ± 0.034
TTGAGGGATG	0.992 ± 0.013
TTGAGGGGGT	1.05 ± 0.16
TTGAGGGGTA	1.01 ± 0.021
TTGAGGGGTT	0.979 ± 0.0086
